From article PMC5511257, “Plasticity in the Oxidative Folding Pathway of the High Affinity Nerita Versicolor Carboxypeptidase Inhibitor (NvCI)” (Scientific Reports, 2017)
Bridges are numbered along the chain shown (N, C = ends). Where no end group is shown, it is not given here.

T1: Human carboxypeptidase B1 (hCPB1) (human, UniProt P15086 111-417)
T1 construct: also called human CPB1
T1 sequence (looked up): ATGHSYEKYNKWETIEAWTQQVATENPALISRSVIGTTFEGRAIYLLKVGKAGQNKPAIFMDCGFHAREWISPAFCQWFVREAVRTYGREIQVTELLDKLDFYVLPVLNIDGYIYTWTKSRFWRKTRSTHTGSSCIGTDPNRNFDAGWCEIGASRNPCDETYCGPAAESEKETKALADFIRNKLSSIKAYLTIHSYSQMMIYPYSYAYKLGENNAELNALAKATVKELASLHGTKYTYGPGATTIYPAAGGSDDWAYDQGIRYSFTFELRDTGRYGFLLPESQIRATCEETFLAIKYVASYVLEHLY

T2: Porcine carboxypeptidase B (pCPB1) (porcine, UniProt P09955 111-416)
T2 construct: Porcine carboxypeptidase B (CPB1), purchased active enzyme; also called porcine CPB1; source: bought: Sigma
T2 sequence (looked up): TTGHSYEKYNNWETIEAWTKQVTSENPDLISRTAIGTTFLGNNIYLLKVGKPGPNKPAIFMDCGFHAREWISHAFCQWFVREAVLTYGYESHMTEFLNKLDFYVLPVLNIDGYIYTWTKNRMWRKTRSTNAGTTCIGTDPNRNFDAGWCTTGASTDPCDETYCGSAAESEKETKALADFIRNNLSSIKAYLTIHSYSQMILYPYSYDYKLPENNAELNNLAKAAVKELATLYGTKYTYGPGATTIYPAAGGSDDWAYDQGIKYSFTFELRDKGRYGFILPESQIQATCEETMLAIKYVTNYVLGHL

T3: Human carboxypeptidase A1 (hCPA1) (human, UniProt P15085 111-419)
T3 construct: also called human CPA1
T3 sequence (looked up): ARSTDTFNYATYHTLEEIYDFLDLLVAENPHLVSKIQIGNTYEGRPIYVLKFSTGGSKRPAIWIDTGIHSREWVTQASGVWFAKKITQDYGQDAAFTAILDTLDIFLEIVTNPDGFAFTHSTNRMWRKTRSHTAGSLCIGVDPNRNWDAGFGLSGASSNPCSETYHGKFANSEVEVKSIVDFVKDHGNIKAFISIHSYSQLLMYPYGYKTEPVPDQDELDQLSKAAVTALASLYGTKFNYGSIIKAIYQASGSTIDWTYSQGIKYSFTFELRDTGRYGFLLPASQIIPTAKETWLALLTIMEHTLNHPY

T4: Bovine carboxypeptidase A (bCPA1) (bovine, UniProt P00730 111-419)
T4 construct: Bovine carboxypeptidase A (CPA1), purchased active enzyme; also called bovine CPA1; source: bought: Sigma
T4 sequence (looked up): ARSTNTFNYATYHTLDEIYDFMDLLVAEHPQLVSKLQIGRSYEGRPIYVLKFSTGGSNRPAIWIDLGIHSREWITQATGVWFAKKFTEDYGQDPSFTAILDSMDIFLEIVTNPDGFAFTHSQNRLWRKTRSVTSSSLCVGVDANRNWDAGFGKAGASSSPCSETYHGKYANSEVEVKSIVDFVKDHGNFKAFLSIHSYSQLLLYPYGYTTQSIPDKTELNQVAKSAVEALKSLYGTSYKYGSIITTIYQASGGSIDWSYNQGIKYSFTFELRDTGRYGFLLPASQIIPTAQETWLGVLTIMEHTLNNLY


Key:
Settings in all cases: both partners purified
[1] = molecular target: T1, Human carboxypeptidase B1 (hCPB1); assay: enzyme inhibition kinetics (tight-binding inhibitor, Morrison equation); CPBs: inhibition of hydrolysis of N-(4-methoxyphenylazoformyl)-Arg-OH (0.1 mM) at 355 nm; 20 mM Tris-HCl pH 7.5, 1% v/v DMSO, 0.05% w/v Brij-35, 0.1 M NaCl; 37 °C; enzyme constant (6.0 nM hCPB1 and pCPB1), increasing amounts of inhibitor
[2] = molecular target: T2, Porcine carboxypeptidase B (pCPB1); assay: as above
[3] = molecular target: T3, Human carboxypeptidase A1 (hCPA1); assay: enzyme inhibition kinetics (tight-binding inhibitor, Morrison equation); CPAs: inhibition of hydrolysis of N-(4-methoxyphenylazoformyl)-Phe-OH (0.1 mM) at 355 nm; 20 mM Tris-HCl pH 7.5, 1% v/v DMSO, 0.05% w/v Brij-35, 0.5 M NaCl; 37 °C; enzyme constant (7.5 nM hCPA1, 6.0 nM bCPA1), increasing amounts of inhibitor
[4] = molecular target: T4, Bovine carboxypeptidase A (bCPA1); assay: as above

Row | Binder | Ki [1] [nM] | Ki [2] [nM] | Ki [3] [nM] | Ki [4] [nM]
1 | Nerita versicolor carboxypeptidase inhibitor (NvCI), native (natural protein, UniProt P86912 1-53, looked up, disulfide 15-51, 9-23, 27-38, comprises 53 residues, C-terminal tail Cys51-Tyr52-Ala53; also called native NvCI; 3S-S native form; source: Pichia pastoris, secreted into the extracellular medium, purified (ion exchange, size exclusion); repurified by RP-HPLC) FHVPDDRPCINPGRCPLVPDATCTFVCKAADNDFGYECQHVWTFEGQRVGCYA | 0.62 | 0.53 | 0.00118 | 0.00491
2 | des(15–51) NvCI folding/unfolding intermediate (natural protein, Nerita versicolor, UniProt P86912 1-53, looked up, disulfide 9-23, 27-38; cysteine pairing not given here, differs only in the missing Cys15-Cys51 disulfide; also called intermediate IIb; fraction IIb) FHVPDDRPCINPGRCPLVPDATCTFVCKAADNDFGYECQHVWTFEGQRVGCYA | 7.85 | 4.9 | 1 | 2.01
